Results: US20240309095A1 (Incyte, published 2024)

T1: human B7-H4 (purified monomeric recombinant human protein, ACRO biosystems) (human, UniProt Q7Z7D3 29-258, limits assumed, chemically biotinylated (EZ-Link NHS-LC-Biotin) in the yeast display and competition experiments; non-biotinylated in SPR)
T1 construct: Bought recombinant monomeric protein; also called B7x; B7S1
T1 sequence: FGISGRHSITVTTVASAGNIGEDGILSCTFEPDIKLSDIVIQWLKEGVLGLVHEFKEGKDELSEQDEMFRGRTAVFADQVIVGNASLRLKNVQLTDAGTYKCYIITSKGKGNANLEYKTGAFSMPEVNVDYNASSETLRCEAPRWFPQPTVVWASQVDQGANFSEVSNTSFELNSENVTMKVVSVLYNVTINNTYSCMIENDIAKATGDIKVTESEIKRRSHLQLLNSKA

B1: A06 scFv-Fc (scFv, V domains shown)
VH: EVQLVESGGGVVQPGRSLRLSCAASGFTFGDRAMNWVRQAPGKGLEWVSAISGTGATTYYADSVKGRFTISRDNSKNTLYLQMNSLRAEDTAVYYCARKRWYGMDVWGQGTTVTVSS
VL: SYELTQPPSVSVAPGKTARITCGGNNIVTKSVHWYQQKPGQAPVLVVYDDSDRPSGIPERFSGSNSGNTATLTISRVEAGDEADYYCQVWDRGMIFGTGTKLTVL
notes: Tested as scFv-Fc fusion (human IgG1 Fc, vector pDNL9) in crude yeast supernatant; Combo 1 library
B2: G05 scFv-Fc (scFv, V domains shown)
VH: EVQLVESGGGVVQPGRSLRLSCAASGFTFSSRSMNWVRQAPGKGLEWVSAISGSGSTVYYADSVKGRFTISRDNSKNTLYLQMNSLRAEDTAVYYCARKRWYGMDVWGQGTTVTVSS
VL: SYELTQPPSVSVAPGKTARITCGGNKLGDKWVHWYQQKPGQAPVLVVYEDVDRPSGIPERFSGSNSGNTATLTISRVEAGDEADYYCQVWDSRTYVFGTGTKLTVL
notes: Tested as scFv-Fc fusion (human IgG1 Fc, vector pDNL9) in crude yeast supernatant; Combo 1 library; also called G5

How the values were obtained:
[1] = target: T1, human B7-H4 (purified monomeric …); test: SPR (Carterra LSA); scFv-Fc captured on anti-human IgG Fc, antigen injected
Experimental: (§1) Finally, the affinity of the 24 clones was determined using high-throughput surface plasmon resonance (SPR). The supernatants were arrayed by non-covalent capture in a medium-density SPR chip previously coupled with an anti-human polyclonal antibody and (at least 4 replicates per clone). Non-biotinylated antigen was used for all affinity measurements and sensorgrams were fitted using a pseudo-first-order kinetic model (Lundström 1994). […] In fact, it is notable that the off rates for some of the tested antibodies are probably better than 10⁻⁵ (Table 7), as indicated by the bunching of matured antibodies at that value (Table 7)—such slow off rates are challenging to accurately measure using SPR. No affinity difference was observed between clones coming from one combo library versus the other.
(§2) The scFv from the final population (round 3, combo libraries) was bulk cloned into a yeast expression vector containing a human IgG1 Fc region to be expressed in the scFv-Fc format. For this, the scFv region was amplified by PCR, digested with BssHII and NheI restriction enzyme (New England Biolabs), and cloned into the pDNL9 vector, 92 clones were analyzed by Sanger sequencing and 24 of these plus the parental were expressed using S. cerevisiae strain YVH10 (ATCC MYA-4940). scFv-Fc fusions were expressed for 72 h at 20° C. in the presence of galactose. The Carterra LSA surface resonance system was used for the affinity measurements. Briefly, anti-Human IgG Fc (Southern Biotech, #2048-01) was covalently coupled to an HC30M chip following the manufacturer's protocols. Crude yeast supernatants containing the scFv-Fc fusions were arrayed on the chip.

[2] = target: T1, human B7-H4 (purified monomeric …); test: SPR (Carterra LSA); scFv-Fc captured on anti-human IgG Fc, antigen injected; asterisk: reached minimum allowed dissociation rate; asterisk: kd at the minimum value allowed (10^-5 s^-1)
Experimental: as §1
as §2, with “The Carterra LSA surface resonance system was used for the affinity measurements. Briefly, anti-Human IgG Fc (Southern Biotech, #2048-01) was covalently coupled to an HC30M chip following the manufacturer's protocols. Crude yeast supernatants containing the scFv-Fc fusions were arrayed on the chip.” left out

[3] = target: T1, human B7-H4 (purified monomeric …); test: SPR (Carterra LSA); scFv-Fc captured on anti-human IgG Fc, antigen injected; asterisk: reached minimum allowed dissociation rate
Experimental: as §1, §2

Row | Binder | KD fold-improvement [1] | Kd [1] | kon [1] | koff [2] | koff [3]
1 | B1 | 221 fold over parental | ≤ 0.034 nM | 320000 M⁻¹ s⁻¹ | ≤ 1e-05 s⁻¹ | 
2 | B2 | 119 fold over parental | ≤ 0.063 nM | 160000 M⁻¹ s⁻¹ |  | ≤ 1e-05 s⁻¹
